Test results: paper PMC4357707 (Nucleic Acids Research, 2015)

Assays:
HEN1-K22A = biological target: T1, HEN1-K22A (Arabidopsis thaliana, UniProt Q9C5Q8 1-942, K22A); test: EMSA
T1 sequence: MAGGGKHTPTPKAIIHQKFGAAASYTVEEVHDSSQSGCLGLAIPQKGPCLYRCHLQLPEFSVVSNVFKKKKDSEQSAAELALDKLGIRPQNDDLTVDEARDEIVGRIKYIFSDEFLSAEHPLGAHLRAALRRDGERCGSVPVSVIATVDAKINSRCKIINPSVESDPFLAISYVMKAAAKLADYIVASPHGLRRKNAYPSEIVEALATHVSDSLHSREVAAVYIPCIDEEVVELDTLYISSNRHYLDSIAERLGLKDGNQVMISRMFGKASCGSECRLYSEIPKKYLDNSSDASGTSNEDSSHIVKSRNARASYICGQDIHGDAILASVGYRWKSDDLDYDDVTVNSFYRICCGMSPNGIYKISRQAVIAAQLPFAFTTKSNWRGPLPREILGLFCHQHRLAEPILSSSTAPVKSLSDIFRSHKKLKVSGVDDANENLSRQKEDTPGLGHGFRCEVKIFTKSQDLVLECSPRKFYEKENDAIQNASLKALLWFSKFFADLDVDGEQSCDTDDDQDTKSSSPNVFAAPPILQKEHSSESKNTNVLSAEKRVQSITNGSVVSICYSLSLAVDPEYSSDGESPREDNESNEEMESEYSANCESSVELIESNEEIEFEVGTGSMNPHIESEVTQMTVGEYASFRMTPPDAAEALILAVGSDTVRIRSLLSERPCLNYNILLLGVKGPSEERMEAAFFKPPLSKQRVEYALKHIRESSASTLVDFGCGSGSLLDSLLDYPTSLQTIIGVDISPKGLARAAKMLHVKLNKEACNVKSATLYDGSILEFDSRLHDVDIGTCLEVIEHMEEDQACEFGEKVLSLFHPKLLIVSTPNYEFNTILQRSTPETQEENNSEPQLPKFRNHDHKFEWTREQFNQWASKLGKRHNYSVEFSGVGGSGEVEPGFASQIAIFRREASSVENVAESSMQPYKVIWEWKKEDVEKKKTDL

HEN1 Δ38-45 = biological target: T2, HEN1 Δ38-45 (Arabidopsis thaliana, UniProt Q9C5Q8 1-37+=G+46-942, internal_change); test: EMSA
T2 sequence: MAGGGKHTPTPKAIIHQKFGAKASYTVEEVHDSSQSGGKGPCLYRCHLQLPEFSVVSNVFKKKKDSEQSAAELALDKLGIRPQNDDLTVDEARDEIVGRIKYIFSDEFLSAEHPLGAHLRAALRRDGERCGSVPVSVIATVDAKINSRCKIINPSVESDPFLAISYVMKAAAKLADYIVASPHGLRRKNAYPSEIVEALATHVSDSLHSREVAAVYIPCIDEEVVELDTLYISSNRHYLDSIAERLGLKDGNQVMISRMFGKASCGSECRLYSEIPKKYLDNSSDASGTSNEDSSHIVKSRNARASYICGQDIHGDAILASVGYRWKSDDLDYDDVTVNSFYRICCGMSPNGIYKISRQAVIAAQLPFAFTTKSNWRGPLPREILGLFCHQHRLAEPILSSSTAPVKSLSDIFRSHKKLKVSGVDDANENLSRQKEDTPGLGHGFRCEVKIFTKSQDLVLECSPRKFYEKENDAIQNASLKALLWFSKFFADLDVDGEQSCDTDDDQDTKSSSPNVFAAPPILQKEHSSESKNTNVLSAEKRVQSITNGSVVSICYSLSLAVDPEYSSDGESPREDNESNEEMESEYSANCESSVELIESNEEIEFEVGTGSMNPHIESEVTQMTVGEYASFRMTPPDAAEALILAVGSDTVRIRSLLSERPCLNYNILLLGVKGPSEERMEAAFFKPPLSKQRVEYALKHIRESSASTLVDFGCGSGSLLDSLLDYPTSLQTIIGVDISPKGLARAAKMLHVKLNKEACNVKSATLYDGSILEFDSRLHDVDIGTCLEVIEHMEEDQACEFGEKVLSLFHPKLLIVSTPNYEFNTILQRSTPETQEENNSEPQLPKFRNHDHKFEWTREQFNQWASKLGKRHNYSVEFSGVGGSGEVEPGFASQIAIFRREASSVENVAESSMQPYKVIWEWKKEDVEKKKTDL

B1: miR173/miR173* (dsRNA)
RNA 1: UUCGCUUGCAGAGAGAAAUCAC
RNA 2: GAUUCUCUGUGUAAGCGAAAG
HEN1-K22A
  binding result: binds
HEN1 Δ38-45
  Kd: 0.32 ± 0.04 nM
